We go through one molecule from patent US20230242586A1, “RAS INHIBITORS AND USES THEREOF” (The Regents of the University of California, priority 2020, published 2023).

Ends that are not written are not given here.

The assay concerns the target biotinylated wildtype K-Ras·GppNHp (His-Avi-TEV-KRAS (wildtype)). Description: TR-FRET K-Ras(wildtype) + Raf1-RBD. As to conditions: chains peptide; modification not given; biotin on the Avi tag (co-expressed BirA). (In general: In TR-FRET formats the signal depends on donor and acceptor labels being close together.)

One may read the IC50 as the concentration that gives 50% inhibition.

Turning to YFVNFRNFRTFRCG (also: cyclic, ring closure not given here) [KD2], the IC50 is greater than 100 µM.
